From patent US20240239878A1 (SHANGHAI QILU PHARMACEUTICAL RESEARCH AND DEVELOPMENT CENTRE, published 2024) come the findings set out here.

For the assay, the target named is T1, human DLL1 (Sino Biological, Cat. No. 11635-H08H) (human, UniProt O00548 18-545).
T1 construct: also called family protein DLL1
T1 sequence: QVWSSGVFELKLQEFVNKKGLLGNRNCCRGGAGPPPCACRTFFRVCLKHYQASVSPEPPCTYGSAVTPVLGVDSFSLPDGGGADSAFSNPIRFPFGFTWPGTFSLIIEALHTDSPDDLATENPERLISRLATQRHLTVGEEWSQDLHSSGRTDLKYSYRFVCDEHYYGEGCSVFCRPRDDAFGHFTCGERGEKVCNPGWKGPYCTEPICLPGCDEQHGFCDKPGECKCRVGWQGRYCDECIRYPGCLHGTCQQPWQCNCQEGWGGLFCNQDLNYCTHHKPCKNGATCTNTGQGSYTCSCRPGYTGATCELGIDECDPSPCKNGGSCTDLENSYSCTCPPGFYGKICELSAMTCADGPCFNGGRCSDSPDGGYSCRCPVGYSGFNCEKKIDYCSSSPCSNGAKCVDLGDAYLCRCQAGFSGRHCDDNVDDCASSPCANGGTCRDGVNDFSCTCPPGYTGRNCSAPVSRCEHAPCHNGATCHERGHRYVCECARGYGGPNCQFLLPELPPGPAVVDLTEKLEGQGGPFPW
The assay can be described thus: ELISA, plate coated with human DLL1 at 1 ug/mL, OD 450nm. Here is the method:
The antigenic proteins human DLL1 (SinoBiological, cat. No. 11635-H08H) or human DLL4 (SinoBiological, cat. No. 10171-H08H) were dissolved in 1×PBS at a concentration of 1 μg/mL. […] The antigen was washed three times with PBST, 300 μL/well. The antigen was blocked with 1% BSA (in PBST), 200 µL/well, and incubated at 37° C. for 1.5 hours.
Antibodies to be tested were diluted with 1% BSA (in PBS) at a starting concentration of 100 nM, downwards by a 10-fold gradient for 7 concentrations. The plates were washed three times with PBST, 300 μL/well. The diluted antibody was added to an ELISA plate at 100 μL/well and incubated at room temperature for 2 hours. The antibodies were washed three times with PBST, 300 μL/well. The secondary antibodies (goat anti-human IgG Fc for DLL4 (HRP), 1:20000 dilution; HRP goat anti-mouse IgG (H+L) for DLL1, 1:10000 dilution) were diluted with 1% BSA in PBST. The diluted secondary antibodies were added to the ELISA plate at 100 μL/well and incubated at room temperature for 1 hour. The plates were washed 6 times with PBST, 300 μL/well. The developing solution (TMA and TMB 1:1 mixed) was prepared. The developing solution was added to the plate, 100 μL/well, and incubated in the dark for 5 min. 50 μL of ELISA stop solution was added to the plate and shaken well.

B1: H2-39E2D11 mouse hybridoma-derived humanized anti-DLL3 antibody (antibody, V domains shown)
VH: QVQLVQSGAEVKKPGASVKVSCKASGYTFISYWITWVRQAPGQGLEWMGDIYPGSGSTTNYNEKFKSRVTMTRDTSTSTVYMELSSLRSEDTAVYYCARETTVGGAYAMDYWGQGTLVTVSS
VL: EIVLTQSPATLSLSPGERATLSCRASQSINNNLHWYQQKPGQAPRLLIKYVSQSISGIPARFSGSGSGTDFTLTISSLEPEDFAVYYCQQTNSWPLTFGGGTKLEIK
Consider B1, for which the binding result was “no binding (tested: 100 nM)”.
